Reference: patent US20260008815A1, “CYCLIC PEPTIDE OR SALT THEREOF, AND USES THEREOF” (FUJIFILM Corporation, priority 2023, published 2026)
Bridge positions count the residues as written; N and C are the ends. Ends that are not written are not given here. COCH2 = acetyl group that carries the bridge

Experiments:
bovine myoblasts = experiment: Bovine myoblast proliferation-promoting effect; type: cell-based, Japanese Black cattle; conditions: of 30 ng/mL bFGF (=100, negative control =0); 0.03 to 10 nmol/L complex, 4 days
Experimental: The bovine cells (myoblasts) proliferation-promoting effect of the cyclic peptide complex was evaluated.
Bovine myoblasts were separated from bovine muscle tissue by the following method. First, muscle tissue of Japanese Black cattle was finely chopped in HBSS (−) (phenol red-free) (FUJIFILM Wako Pure Chemical Corporation, 085-09355), and then pronase from Streptomyces griseus (Sigma-Aldrich, 10165921001) was added thereto to a final concentration of 1 mg/mL, and the mixture was allowed to stand at 37° C. for 1 hour. After allowing to stand, HBSS containing 10% FBS was added thereto, and the cells were acquired by centrifugation. The acquired cells were suspended in D-MEM (high glucose) (containing L-glutamine and phenol red) (FUJIFILM Wako Pure Chemical Corporation, 044-29765) containing 10% final concentration of bovine serum and 30 ng/mL bFGF. Suspended cells were cultured in a culture flask coated with an iMatrix-511 solution (FUJIFILM Wako Pure Chemical Corporation, 381-07363) at 0.55 μg/cm^2. […]
The evaluation of the proliferation-promoting effect on bovine myoblasts was performed by the following method. […] The number of viable cells was calculated from the imaging data and normalized by setting the number of viable cells in the well to which 30 ng/mL bFGF was added to 100, and setting the number of viable cells in the negative control well to 0.

[1] = target: T1, FGFR1 Protein, Human, Recombinant (His Tag) (Sino Biological, 10616-H08H) (human, UniProt P11362 22-376); experiment: SPR, 1 umol/L FGFR over immobilized peptide
T1 construct: bought; not shown: His tag
T1 sequence (looked up): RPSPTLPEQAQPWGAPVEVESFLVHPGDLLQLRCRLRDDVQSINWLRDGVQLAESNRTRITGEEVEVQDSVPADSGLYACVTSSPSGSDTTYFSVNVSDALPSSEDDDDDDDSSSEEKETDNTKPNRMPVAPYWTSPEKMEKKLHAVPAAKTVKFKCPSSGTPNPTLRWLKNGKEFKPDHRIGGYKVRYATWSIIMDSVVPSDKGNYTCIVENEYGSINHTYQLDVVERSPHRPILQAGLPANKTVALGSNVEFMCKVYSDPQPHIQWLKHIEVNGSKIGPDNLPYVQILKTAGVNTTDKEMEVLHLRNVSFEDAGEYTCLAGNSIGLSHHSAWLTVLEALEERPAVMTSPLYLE
Experimental: (§1) Next, 70 μL of a mixed aqueous solution of 0.2 mol/L 1-(3-dimethylaminopropyl)-3-ethylcarbodiimide (EDC) and 0.05 mol/L N-hydroxysuccinimide (NHS) was added to activate the sensor chip. Then, a cyclic peptide prepared to 2 mg/mL in HBS-EP buffer was added thereto to perform immobilization at about 200 RU. Thereafter, the blocking treatment was performed with an ethanolamine solution. In addition, in another flow channel of the same sensor chip, blocking treatment was performed immediately after activation without immobilizing FGFR.
(§2) After various FGFRs (FGFR1 Protein, Human, Recombinant (His Tag) (Sino Biological, 10616-H08H), FGFR2 Protein, Human, Recombinant (His Tag) (Sino Biological, 10824-H08H), FGFR3 Protein, Human, Recombinant (ECD, His Tag) (Sino Biological, 16044-H08H), FGFR4 Protein, Human, Recombinant (His Tag) (Sino Biological, 10538-H08H)) diluted with HBS-EP to 1 μmol/L at 25° C. was added to each flow channel of the cyclic peptide-immobilized sensor chip prepared above, for 10 minutes, HBS-EP was allowed to flow as a running buffer for 30 minutes, and the binding of various FGFRs to the cyclic peptide was measured. Thereafter, a regeneration treatment of removing the bound FGFR was performed by repeating the flow of a regeneration liquid in which sodium chloride (final concentration: 0.4 mol/L) and a sodium dodecyl sulfate aqueous solution (mixed concentration: 1%, final concentration: 0.2%) were dissolved in Glysine 1.5 (Cytiva, BR100354) for 1 minute in each flow channel twice. The binding amount of the cyclic peptide was evaluated from the difference between the measured value of Biacore-T200 in the flow channel in which the cyclic peptide was immobilized and the measured value of Biacore-T200 in the flow channel in which the cyclic peptide was not immobilized, in a case where 1 μmol/L FGFR was allowed to flow.
(§3) The binding amount of FGFR evaluated above was normalized to the binding amount of FGFR molecules per one molecule of the cyclic peptide using the molecular weights of the cyclic peptide and FGFR, and the binding affinity to FGFR was evaluated according to the following evaluation criteria. The evaluation result preferably satisfies the evaluation criteria A, B, or C.

[2] = target: T2, FGFR2 Protein, Human, Recombinant (His Tag) (Sino Biological, 10824-H08H) (human, UniProt P21802 22-377); experiment: SPR, 1 umol/L FGFR over immobilized peptide
T2 construct: bought; not shown: His tag
T2 sequence (P21802 22-377 limits assumed): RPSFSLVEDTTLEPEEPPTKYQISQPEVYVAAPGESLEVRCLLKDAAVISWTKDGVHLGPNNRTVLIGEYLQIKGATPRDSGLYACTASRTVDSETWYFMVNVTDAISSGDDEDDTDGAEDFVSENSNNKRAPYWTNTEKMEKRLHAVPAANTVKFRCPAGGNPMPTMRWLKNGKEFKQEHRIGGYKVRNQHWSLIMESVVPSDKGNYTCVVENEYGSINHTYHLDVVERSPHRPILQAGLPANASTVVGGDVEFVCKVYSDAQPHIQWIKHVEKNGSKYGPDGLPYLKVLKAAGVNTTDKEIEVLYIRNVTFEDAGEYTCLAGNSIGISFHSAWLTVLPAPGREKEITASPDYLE
Experimental: as §1, §2, §3

[3] = target: T3, FGFR3 Protein, Human, Recombinant (ECD, His Tag) (Sino Biological, 16044-H08H) (human, UniProt P22607 23-375); experiment: SPR, 1 umol/L FGFR over immobilized peptide
T3 construct: extracellular domain; bought; not shown: His tag
T3 sequence (looked up): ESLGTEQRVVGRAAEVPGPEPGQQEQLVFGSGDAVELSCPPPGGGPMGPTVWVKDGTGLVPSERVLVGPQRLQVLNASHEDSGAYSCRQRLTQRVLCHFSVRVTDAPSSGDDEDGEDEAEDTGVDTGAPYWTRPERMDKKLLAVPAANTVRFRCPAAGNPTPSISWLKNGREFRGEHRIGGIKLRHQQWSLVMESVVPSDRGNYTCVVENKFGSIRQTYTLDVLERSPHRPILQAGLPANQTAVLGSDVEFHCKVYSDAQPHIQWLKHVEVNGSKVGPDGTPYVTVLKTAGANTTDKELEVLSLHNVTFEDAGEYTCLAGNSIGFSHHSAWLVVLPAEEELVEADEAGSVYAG
Experimental: as §1, §2, §3

[4] = target: T4, FGFR4 Protein, Human, Recombinant (His Tag) (Sino Biological, 10538-H08H) (human, UniProt P22455 22-369); experiment: SPR, 1 umol/L FGFR over immobilized peptide
T4 construct: bought; not shown: His tag
T4 sequence (looked up): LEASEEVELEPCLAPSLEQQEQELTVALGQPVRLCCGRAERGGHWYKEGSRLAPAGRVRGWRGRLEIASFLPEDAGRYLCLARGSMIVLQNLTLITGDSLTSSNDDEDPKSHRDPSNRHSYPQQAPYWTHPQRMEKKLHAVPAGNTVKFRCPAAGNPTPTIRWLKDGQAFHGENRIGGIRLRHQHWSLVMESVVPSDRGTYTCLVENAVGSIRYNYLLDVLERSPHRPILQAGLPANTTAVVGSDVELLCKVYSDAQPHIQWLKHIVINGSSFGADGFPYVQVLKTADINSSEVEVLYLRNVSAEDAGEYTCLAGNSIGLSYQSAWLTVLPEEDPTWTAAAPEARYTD
Experimental: as §1, §2, §3

[5] = target: T5, Recombinant Human FGFR2 alpha (IIIc) Fc Chimera Protein, CF (R&D systems, 712-FR-050) (human, UniProt P21802 22-377); experiment: SPR, 10 nmol/L peptide over immobilized FGFR2-Fc
T5 construct: bought; not shown: Fc part of the chimera
T5 sequence (P21802 22-377, change not shown): as the sequence (P21802 22-377 limits assumed) above
Experimental: A CM5 sensor chip (Cytiva, 29149603) was set in Biacore-T200 (manufactured by Cytiva) which is a surface plasmon resonance device, and an HBS-EP buffer (Cytiva, BR100826) was added as a running buffer at a flow rate of 10 μL/min to equilibrate the flow channel. Next, 70 μL of a mixed aqueous solution of 0.2 mol/L 1-(3-dimethylaminopropyl)-3-ethylcarbodiimide (EDC) and 0.05 mol/L N-hydroxysuccinimide (NHS) was added to activate the sensor chip. Then, Recombinant Human FGFR2 alpha (IIIc) Fc Chimera Protein CF (R&D systems, 712-FR-050) prepared at 50 nmol/L in an Acetate 4.5 buffer (Cytiva, BR100350) was added thereto to perform immobilization at about 5000 RU. Thereafter, the blocking treatment was performed with an ethanolamine solution. In addition, in another flow channel of the same sensor chip, blocking treatment was performed immediately after activation without immobilizing FGFR.
A cyclic peptide diluted to 10 nmol/L using HBS-EP was added to each flow channel of the FGFR-immobilized sensor chip produced above at 25° C. for 10 minutes, then HBS-EP was allowed to flow as a running buffer for 30 minutes, and the binding of the cyclic peptide to FGFR was measured. Thereafter, a regeneration treatment of removing the bound cyclic peptide was performed by repeating the flow of a regeneration liquid in which sodium chloride powder was dissolved in Glysine 1.5 (Cytiva, BR100354) to a final concentration of 0.15 mol/L for 1 minute in each flow channel twice. The binding amount of the cyclic peptide was evaluated from the difference between the measured value of Biacore-T200 in the flow channel in which FGFR was immobilized and the measured value of Biacore-T200 in the flow channel in which FGFR was not immobilated, in a case where a 10 nmol/L cyclic peptide was allowed to flow.

Molecule	bovine myoblast proliferation action (bovine myoblasts)	binding amount (SPR, FGFR molecules bound per cyclic peptide molecule) [1]	binding amount (SPR, FGFR molecules bound per cyclic peptide molecule) [2]	binding amount (SPR, FGFR molecules bound per cyclic peptide molecule) [3]	binding amount (SPR, FGFR molecules bound per cyclic peptide molecule) [4]	binding amount (SPR, cyclic peptide molecules bound per FGFR molecule at 10 nmol/L peptide) [5]
Q-(C)-PQNFINPVQWRYFQHY-(K(acetyl))-NK (QCPQNFINPVQWRYFQHYK(COCH2)NKQCPQNFINPVQWRYFQHYK(COCH2)NK; thioether 2-19, 23-40; not fully specified (N-terminus, bridges); also: Bis-NHS-PEG9 crosslink, dimer of two 21-mers) [SEQ ID NO: 458, cyclic peptide complex; N-terminal acetylation, crosslinking between side chain amino groups of K via Bis-NHS-PEG9]	about 40%	–	–	–	–	–
YCEENYLDPEQYQYFIYFK(COCH2)YKKK (thioether 2-19, chemically synthesized) [cyclic peptide SEQ ID NO: 450]	–	0.01 to 0.05 moleculesoffgfr/onemoleculeofthecyclicpeptide	≥ 0.05 moleculesoffgfr/onemoleculeofthecyclicpeptide	0.01 to 0.05 moleculesoffgfr/onemoleculeofthecyclicpeptide	0.01 to 0.05 moleculesoffgfr/onemoleculeofthecyclicpeptide	≥ 0.7 moleculesofthecyclicpeptide/onemoleculeoffgfr
